# Test results from publication PMC9335211.
# Columns and labels:
# [1] = molecular target: full-length ectodomains (EC1 to EC5) of mouse E-cadherin, wild type (mouse); experiment: high-speed atomic force microscopy
# [2] = molecular target: mouse E-cadherin full-length ectodomains, W2A mutant (mouse); experiment: high-speed atomic force microscopy
stoichiometry N [1],share of the observed dimers that are S-shaped [2] [%],share of the observed dimers that are cross-shaped (X-like dimer) [2] [%],Substance
2,–,–,"full-length ectodomains (EC1 to EC5) of mouse E-cadherin, wild type (domain or fragment)"
–,45,20,"mouse E-cadherin full-length ectodomains, W2A mutant (domain or fragment)"
